Experimental data taken from patent publication US20150231240A1, “ANTI-C16ORF54 ANTIBODIES AND METHODS OF USE THEREOF” (priority 2012, published 2015).
Where a chain is given by its changes, count along the chain named.

Experiments:
human C16orf54 [1] = target: T1, human C16orf54 (human, UniProt Q6UWD8 1-224); test: flow cytometry, KG-1 leukemia cells (endogenous C16orf54), 6 repeats
T1 construct: also called huC16orf54; hC16orf54
T1 sequence: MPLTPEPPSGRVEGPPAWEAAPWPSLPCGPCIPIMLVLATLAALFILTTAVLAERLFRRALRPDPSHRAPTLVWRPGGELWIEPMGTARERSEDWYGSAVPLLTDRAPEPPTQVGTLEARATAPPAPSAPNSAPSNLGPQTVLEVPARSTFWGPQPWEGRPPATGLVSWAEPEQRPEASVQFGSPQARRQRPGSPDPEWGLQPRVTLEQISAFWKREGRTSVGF

human C16orf54 [2] = target: T1, human C16orf54; test: flow cytometry, WSU-FSCCL lymphoma cells (endogenous C16orf54), 3 repeats
[3] = target: T2, N-terminal 32 amino acids of huC16orf54 coupled to biotin (human, biotin at the C-terminus); test: biolayer interferometry (OctetQK384), purified antibody on streptavidin sensors coated with the biotinylated peptide
T2 construct: also called 32 amino acid N-terminal extracellular domain
T2 peptide: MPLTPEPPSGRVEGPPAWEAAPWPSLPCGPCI
Procedure: Affinity measurements of purified anti-huC16orf54 antibodies were carried out on the OctetQK384® sytem (ForteBio). After coating streptavidin sensors with the N-terminal 32 amino acids of huC16orf54 coupled to biotin at the C-terminus, association and dissociation of purified anti-huC16orf54 antibodies was monitored. KD values were derived using ForteBio's software.

human C16orf54 [4] = target: T1, human C16orf54; test: cell ELISA on huC16orf54-expressing sarcoma cells, purified antibody in 1:4 eight-point dilution from 200 nM, 2 h at 4 C, anti-mouse IgG Fc HRP luminescence
Procedure: Purified anti-huC16orf54 monoclonal antibodies were also tested for binding by ELISA. huC16orf54-expressing sarcoma cells were incubated with an 1:4 eight-point dilution series starting with 200 nM of anti-huC16orf54 antibody for 2 hours at 4° C. After washing, the cells were incubated with a secondary antibody (Jackson Immunologicals Goat×IgG, Fc specific HRP—Product#115-035-071) and detected with SuperSignal® ELISA Pico Chemiluminescent substrate (Thermo Scientific—Product#37069). EC50 values were determined using Graphpad Prism® software. An isotype control, R22-4-26A, is also shown.

[5] = target: T3, N-terminal 32 amino acids of huC16orf54 (Homo sapiens, UniProt Q6UWD8); test: Off-rate screen of hybridoma supernatants on OctetQK384 (biolayer interferometry); type: binding; details: calculated off-rate
T3 sequence (Q6UWD8 1-32 limits assumed): T2 peptide
Procedure: Eight anti-huC16orf54 monoclonal antibodies were further screened for binding and subsequent off-rate analysis using the OctetQK384® sytem (ForteBio). Hybridoma supernatants were screened for association to and dissocation from streptavidin sensors coated with the N-terminal 32 amino acids of huC16orf54 coupled to biotin, and the calculated offrates (kdis) are shown in Table 31. Cloned hybridomas with […] off-rates were carried forward for antibody purification.

[6] = target: T4, extracellular domain of c16orf54 (amino acids 1-31) fused to human IgG1 Fc (Homo sapiens, UniProt Q6UWD8); test: C16orf54 peptide-Fc fusion protein ELISA; type: binding; details: serial dilution of antibody; HRP-conjugated anti mouse secondary
T4 construct: the extracellular domain of c16orf54 (amino acids 1-31) either N terminal or C-terminal to a human IgG1 Fc domain; made in house; host or cells: 293 T cells, transient; Protein A purification
T4 sequence (Q6UWD8 1-31 limits assumed): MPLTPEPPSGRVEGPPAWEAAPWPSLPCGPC
Procedure: Anti-C16orf54 antibodies which bind to human C16orf54, including antibodies that are crossreactive with cyno C16orf54, were tested for their binding to various peptides derived from C16orf54 that were fused to human IgG (e.g., IgG1) constant regions to generate various peptide-Fc fusion proteins in an Fc-based ELISA. An exemplary Fc sequence comprises an IgG1 Hinge region sequence and IgG1 CH3 and […] domain sequences.
The fusion proteins were transiently expressed in 293 T cells. Protein was purified from the 293 expression supernatants by Protein A-based affinity purification. Exemplary C16 peptide-Fc fusion constructs that were made and purified are shown with their protein yield in Table 38. ELISA assays were performed by coating 384 well plates with the fusion proteins overnight at 4C. Antibodies were analyzed by serial dilution with concentrations ranging from 40 ug/mL to […]. Binding was detected with an HRP-conjugated anti mouse secondary antibody.

C16orf54 ECD peptides = test: Peptide crossblocking (Table 36); type: binding
[7] = target: T5, C16orf54 in cells and human tissues (Homo sapiens, UniProt Q6UWD8); test: Human C16orf54 immunohistochemistry (IHC); type: binding
T5 construct: from tissue; host or cells: isolated hematological tumour cells (lymphoma, AML, CLL) and human tissues, OCT-embedded frozen sections
T5 sequence (Q6UWD8 1-224): T1 sequence
Procedure: Anti-C16orf54 antibodies were used to detect C16orf54 expression as analyzed by immunohistochemistry (IHC). The transfected cell lines (5×10^7) and isolated hematological diseased cells were washed in PBS, centrifuged at 300 g for 10 minutes and the resultant cell pellets embedded and frozen in Tissue-Tek OCT compound (commercially available, e.g., Sakura Finetek USA, Inc., Torrence, Calif.; Fisher Scientific USA). 8 μm cryostat sections of the OCT embedded cells and human tissues were post-fixed in a 75% ethanol, 25% acetone mixture for 5 minutes followed by washing in PBS. The slides were then stained with exemplary primary anti-C16orf54 antibodies on a Dako Autostainer using standard avidin-biotin complex (ABC) IHC procedures. In some experiments, the endogenous peroxidase activity was blocked using Bloxall reagent (Vector SP-6000) for 5 minutes followed by avidin/biotin blocking reagents (Vector SP-2001) to block endogenous biotin within tissues. A pre-incubation with a protein blocker (Dako X0909) was performed followed by the primary antibodies incubation for 1 hour at room temperature. In some experiments, primary antibody 7-1C was diluted to a final concentration of 5 μg/ml and primary antibody 67-7A was diluted to a final concentration of 10 μg/ml using antibody diluent (Dako S3022). The control antibody used was a pan-mouse IgG antibody (Life Technologies 08-6599). In some experiments, after washing in PBS, the slides were incubated with a biotinylated horse anti-mouse antibody 1:200 (Vector BA-2001) for 30 minutes followed by a universal streptavidin-peroxidase conjugate (ABC-HRP Vector PK-6100) for 30 minutes. Diaminobenzedine was used as the chromagen (Sigma D5909) and the slides were counterstained with Mayers hematoxylin for 5 minutes, followed by dehydration and coverslipping.

B1: R29-7-1C (antibody, V domains shown)
VH: DVQLQESGPGLVKPSQSLSLTCTVTGYSITSDYAWNWIRQFPGNKLEWMGYISYSGSIRYNPSLKSRISITRDTSKNQFFLQLNSVTTEDTATYYCAREKYDNYYYAMDYWGQGTSVTVSS
VL: DIVMSQSPSSLAVSVGEKVTLSCKSSQNLLYSTNQKNYLAWYQQKPGQSPKLLIYWASTRESGVPDRFTGSGSGTDFTLTISSVKAEDLAVYYCQQYYSYRTFGGGTKLEIK
notes: Murine monoclonal IgG2a from a hybridoma
Average MFI fold change relative to isotype control (human C16orf54 [1]): 16.9 fold
Average MFI fold change relative to isotype control (human C16orf54 [2]): 13.7 fold
Kd [3]: 1.1 nM
koff [3]: 7.95e-05 s⁻¹
kon [3]: 68100 M⁻¹ s⁻¹
EC50 (read off the curve) (human C16orf54 [4]): ~0.07 nM

B2: R29-7-1C: murine anti-C16orf54 monoclonal antibody, IgG2a; VH SEQ ID NO: 8, VL SEQ ID NO: 10 (antibody, V domains shown)
VH: MRVLILLWLFTAFPGILSDVQLQESGPGLVKPSQSLSLTCTVTGYSITSDYAWNWIRQFPGNKLEWMGYISYSGSIRYNPSLKSRISITRDTSKNQFFLQLNSVTTEDTATYYCAREKYDNYYYAMDYWGQGTSVTVSS
VL: MDSQAQVLMLLLLWVSGTCGDIVMSQSPSSLAVSVGEKVTLSCKSSQNLLYSTNQKNYLAWYQQKPGQSPKLLIYWASTRESGVPDRFTGSGSGTDFTLTISSVKAEDLAVYYCQQYYSYRTFGGGTKLEIK
modifications: R29-7-1C heavy chain variable region; R29-7-1C light chain variable region
kdis [5]: 0.0102 s⁻¹
binding to peptide-Fc fusion proteins (Fc-based ELISA) [6]: able to bind to the peptide-Fc fusion proteins
Peptide crossblocking (C16orf54 ECD peptides): none

B3: R29-67-7A: murine anti-C16orf54 monoclonal antibody, IgG2a; VH SEQ ID NO: 12, VL SEQ ID NO: 14 (antibody, V domains shown)
VH: B2 VH with S71N, S75R, I76T, K83N, I88L, K94T, K118N, N121Y, Y122E, Y123F
VL: B2 VL with D2E, L41M, T53S, S119I
modifications: R29-67-7A heavy chain variable region; R29-67-7A light chain variable region
kdis [5]: 0.00845 s⁻¹
binding to peptide-Fc fusion proteins (Fc-based ELISA) [6]: able to bind to the peptide-Fc fusion proteins
C16orf54 (67-7A) IHC ([7]; AML sample AML-183L): Positive
C16orf54 (67-7A) IHC ([7]; AML sample AML-205L): Positive
C16orf54 (67-7A) IHC ([7]; AML sample AML-211L): Positive
C16orf54 (67-7A) IHC ([7]; AML sample AML-213L): Positive
C16orf54 (67-7A) IHC ([7]; CLL sample CLL-408L): Positive
C16orf54 (67-7A) IHC ([7]; CLL sample CLL-BC042): Positive
C16orf54 (67-7A) IHC ([7]; CLL sample CLL-BC043): Positive
C16orf54 (67-7A) IHC ([7]; CLL sample CLL-UF048): Positive
C16orf54 (67-7A) IHC ([7]; Lymphoma sample MD00402): Positive
C16orf54 (67-7A) IHC ([7]; Lymphoma sample OD39986): Positive
C16orf54 (67-7A) IHC ([7]; Lymphoma sample OD41079): Positive
C16orf54 (67-7A) IHC ([7]; Lymphoma sample OD41411): Positive
C16orf54 (67-7A) IHC ([7]; Lymphoma sample WD3517): Positive
IHC staining of hematological tumors ([7]; frozen sections, 10 μg/ml primary antibody): confirm the C16orf54 IHC expression in hematological tumors
Peptide crossblocking (C16orf54 ECD peptides): aa1-31, aa1-15
